# The nanobody polyreactivity screen of Harvey et al. (2022)
# Test: yeast display, Sf9 membrane polyspecificity reagent, FACS + sequencing; frameworks hold sequencing errors
# How it was run: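 Nanobodies from a synthetic yeast display library (Saccharomyces cerevisiae BJ5465), induced 36–48 hours with galactose, were stained 1 hour at 4 °C with 10% biotinylated, detergent-solubilized Sf9 membrane reagent, enriched on streptavidin microbeads, then FACS-sorted. Anti-HA (expression) and streptavidin (reagent binding) fluorescence set low and high (top ~1%) gates. Polyreactivity labels come from the gate of origin. Genes were colony-PCR amplified, MiSeq 2 × 250 sequenced and filtered by CDR length.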
row,Sequence,polyreactivity (PSR sort gate)
1,QVQLVESGGGLVQAGGSLRLSCAASGRTFRYNVMGWYRQAPGKERELVASISRISGSTYYADSVKGRFTISRDNAKNTVYLQMNSLKPEDTADYYARAAGEYDYWGQGTQVTVSS,high polyreactivity
2,QVQLVESGGGLVQAGGSLRLSCAASGSIFWRYAMGWYRQAPGKERELVATITSRGGSTYYADSVKGRFTISRDNAKNTVYLQMNSLKQEDTAVYYCAAGWLPKYGYWGQGTQVTVSS,low polyreactivity
3,QVQLVESGGGLVQAGGSLRLSCDASGLTFPYYTMGWYRQAPGKERELVADINGSGGSTYYADSVKGRFTISLDNAKNTFYLQMNSLKPEDTEVYYCAAGSWQVAISYDYWGQGTQVTVSS,low polyreactivity
4,QVQLVESGGGLVQAGGSLRLSCAASGRTFAWYTMGWYRQAPGKERELVAAISGSGGSTYYADSVKGRFTISRDNAKNTVYLQMNSLKPEDTAVYYCARRVDSYYGHTRYYYWGQGTQVTVSS,high polyreactivity
5,QVQLVESGGGLVQAGGSLRLSCAASGYIFGHYTMGWYRPAPRKERELVAGITSGTRTYYADSVKGRFTISRDNAKNTVYLQMNSRKPDDTAVYYCAKRGPVRTQYTYYYWGQGTQVTVSS,high polyreactivity
6,QVQLVESGGGLVQAGGSLRLSCAASGGIFRLYGMGWYRQAPGKERELVAAIRQSGGRTYYADSVKGRFTISRDNAKNTDYLQMNSLKPEDTAVYYCAADLLYRSSGTVRSDYSRYDYWGQGTQVTVSS,low polyreactivity
7,QVQLVESGAGLVQAGGSLRLSCAPSGRTFDYYAMGWYRQAPGKERELVADITKDGGSTYYADSVKGRFTISRDNAKNSVYLQMISLKPEDTAVYYCAADGPPQYYDPIHYDYWGQGTQVTVSS,low polyreactivity
8,QVQLVESGGGLVQAGGSLRLSCAASGYTFGIYTLGWYRQAPGKERELVADISSTGTTKYADSVKGRFTISRDNAKYTVYLQMNSLKPEDTAVYYCAVRPFWYRMDYWGQGTQVTVSS,low polyreactivity
9,QVQLVESRGGLVQAGGSLRLSCAASGSIFLYAMGWYRQEPGKQRELVAAISGGGRTNYADSVKGRFTISRDNAKNTVYLQMNSMKPEDTAVYYCAADPVYWYSPMDYWGQGTQVTVSS,low polyreactivity
10,QVQLEESGGGLVQAGGSLRLSCAASGRSFYGNAMGWYRQAPGKERELVAASSSRSSSTSYADSVKGRFTISRANAKNTVYLLMNSLKPEDTAVYYCATRYGSRTWYGYNYWGQATQVTVSS,high polyreactivity
11,QVQLVESGGGLVQAGGSLRLSCAASGIIFWYYAMGWYRQAPGKERELVAAISSGGSTTYADSVKGRFTISRDNAKNTVYLQMNSLKPEDTAVYYCAAVWLSLFKVWVDTHEYDYWGQGTQVTVSS,low polyreactivity
12,QFQLVESGGGLVQAGGSLRLSCAASGSTFDPYAMGWDTQAPGKEREFLADIDSSVGSTFYADSVKGRFTISRDNPKNTVYLQMNSLKPEDTAVYYCAAASRVAKGRWRLYDYWGQGTQVTVSS,high polyreactivity
13,QVQLQESGGVLVQAVDRQRLSCAASGNIFLFTDMGWYRQAPGKERELVAAINAGSTTYYADSVKGRFTISRDNAKNTVYLQMNSLNPEDTEVYYCAVYYLGSGTFGYWGQGAQVTVSS,high polyreactivity
14,QVQLVESGGGLVQAGGSLSLICADSGSSFYGYAMGWYRQAPGKERELVAAITSSGGSTYYADSVKGRFTISRDNAKNTVYLQMNSLKPEDTAVYYCAARGSLGGWGLRYYWGQGTQVTVSS,high polyreactivity
15,QVQLVESGGGLVQAGGSLRLSCAASGRTFVGYAMGWYRQAPGKERELVAAISWSGGRTYYADSVKGRFTISRDNAKNTVYLQMNSLKPEDTAVYYCAALLYRTPYYPYYGYDYWGQGTQVTVSS,high polyreactivity
16,QVQLVESGGGLVQAGGSLRLSCAASGRTFCGYTMGWYRQAPGKERELVAAITKRGGSTYYADSVKGRFTISRDNAKNTVYLQMNSLKPEDTAVYYCAKTKTAGTIKYDYWGQGTQVTVSS,high polyreactivity
